Measurements published in paper PMC5374410, “Identification of a Potent Allosteric Inhibitor of Human Protein Kinase CK2 by Bacterial Surface Display Library Screening” (Pharmaceuticals, 2017).

Legend:
[1] = molecular target: CK2α-pAzF coupled to DBCO-Sulfo-Cy5 (human) (UniProt P68400); assay: MST; B2 titrated (7.6 nM to 125 or 250 µM) to 100 nM fluorophore-labelled CK2α-DBCO-Sulfo-Cy5 or CK2β^1-193-Flu; 50 mM Tris/HCl pH 7.5, 25 mM NaCl, 20 mM MgCl2, Tween-20, DMSO; 37 °C, MST power 60%; Monolith NT.115; three independent measurements
[2] = molecular target: recombinant human protein kinase CK2 holoenzyme coupled to fluorescein isothiocyanate (FITC) (human) (UniProt P68400)
Chain of recombinant human protein kinase CK2 holoenzyme coupled to fluorescein isothiocyanate (FITC) (human) (P68400 whole entry, chain 1 of 2): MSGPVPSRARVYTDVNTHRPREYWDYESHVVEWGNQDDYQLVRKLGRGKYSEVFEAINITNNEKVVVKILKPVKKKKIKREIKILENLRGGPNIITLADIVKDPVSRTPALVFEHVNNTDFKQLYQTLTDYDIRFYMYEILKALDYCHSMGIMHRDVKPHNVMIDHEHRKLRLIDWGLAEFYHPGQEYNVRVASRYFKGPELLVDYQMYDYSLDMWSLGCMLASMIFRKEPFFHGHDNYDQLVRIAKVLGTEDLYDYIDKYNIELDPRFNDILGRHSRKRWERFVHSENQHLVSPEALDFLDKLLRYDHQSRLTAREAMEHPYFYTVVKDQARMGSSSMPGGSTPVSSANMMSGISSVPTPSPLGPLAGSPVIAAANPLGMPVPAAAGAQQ
Chain of recombinant human protein kinase CK2 holoenzyme coupled to fluorescein isothiocyanate (FITC) (human) (P67870 whole entry, chain 2 of 2, further chain): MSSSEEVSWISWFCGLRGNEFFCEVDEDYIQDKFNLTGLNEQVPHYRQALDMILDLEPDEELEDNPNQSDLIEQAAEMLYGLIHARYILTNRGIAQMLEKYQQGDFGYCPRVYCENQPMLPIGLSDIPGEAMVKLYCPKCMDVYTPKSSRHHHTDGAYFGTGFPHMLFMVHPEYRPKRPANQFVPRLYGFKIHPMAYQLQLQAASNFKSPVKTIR

| Binder | percent inhibition of (unlabelled) CK2 holoenzyme at 10 µM peptide, CE assay [2] [%] | Kd [1] [nM] |
| --- | --- | --- |
| DCRGLIVMIKLH [peptide B2 (free synthetic peptide)] |  | 2160 |
| PCPAPRAPKLSI [peptide B4 (free synthetic peptide)] | 29 |  |

Further lines, with some results ahead:

| percent inhibition of (unlabelled) CK2 holoenzyme at 10 µM peptide, CE assay [2] [%] | Binder | Kd [1] [nM] |
| --- | --- | --- |
| < 5 | KHTKGPTAYCPL [peptide B1 (free synthetic peptide)] |  |
| < 5 | YRKPHWFIHTRI [peptide B3 (free synthetic peptide)] |  |
